From US5888763A, “Peptides specific for the first Crk-SH3 domain” (The Rockefeller University, priority 1994, dated 1999)

Assays:
Assay in all cases: SH3 blot assay with 35S-labeled gst-C3G CB-region
Type in all cases: binding
[1] = system: Grb2, the individual Grb2SH3 domains
Description: (§1) SH3 Blot Assay. […] of gst or equimolar amounts of SH3-fusion proteins were subjected to SDS-PAGE, electroblotted and incubated with […] (70,000 dpm/ml) ^35 S-labeled gst-C3G CB region as described (Feller et al., supra). Filters were exposed over night.

CrkSH3(N) domain = target: T1, CrkSH3(N) domain (Mus musculus, UniProt Q64010)
T1 construct: probed with 1-2 μg/ml ^35 S-labeled gst-fusion CrkSH3(1) domain; made in house; host or cells: bacteria
T1 sequence (Q64010 132-192 limits assumed): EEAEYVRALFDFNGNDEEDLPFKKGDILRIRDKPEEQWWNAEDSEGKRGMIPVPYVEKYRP
Description: as §1

PI3Kp85-a-SH3 domain = target: T2, PI3Kp85-a-SH3 domain (Homo sapiens, UniProt P27986)
T2 construct: The PI3Kp85-a-SH3 domain was a gift of L. Cantley
T2 sequence (P27986 3-79 limits assumed): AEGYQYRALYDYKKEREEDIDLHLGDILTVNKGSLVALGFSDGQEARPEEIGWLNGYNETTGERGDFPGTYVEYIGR
Description: as §1

B1: C3G CB-region: C3G region containing all four CB-sequences expressed as 35S-labeled gst-fusion protein (protein)
chain: NSPPPALPPKKRQSAPSPTRVAVVAPMSRATSGSSLPVGINRQDFDVDCYAQRRLSGGSHSYGGESPRLSPCSSIGKLSKSDEQLSSLDRDSGQCSRNTSCETLDHYDPDYEFLQQDLSNADQIPQQTAWNLSPLPESLGESGSPFLGPPFQLPLGGHPQPDGPLAPGQQTDTPPALPKKKRRSAASQTADGSGCRVSYERHPSQYDNISGEDLQSTAPIPSVPYAPFAAILPFQHGGSSAPVEFVGDFTAPESTGDPEKPPPLPEKKQKHMLAYMQLLEDYSEPQPSMFYQTPQNEHIYQQKMKLLMEVYGFSDSFSGVDSVQELAPPPALPPAQRQLEPPAGKDGHPRDPSAVSVVPGKDSRDGSERAPKDP
binding to Grb2 and the individual Grb2SH3 domains [1]: only bound weakly | binding to gst-fusion constructs containing the CrkSH3(N) domain (CrkSH3(N) domain): bound strongly | binding to PI3Kp85-a-SH3 domain (PI3Kp85-a-SH3 domain): only bound weakly
